Assay results: patent US20240010722A1 (published 2024)
Several values for one entry are separate records, joined by “and”; a condition that tells them apart may be missing. Equal values may be shown once.

Columns and labels:
human MAdCAM [1] = target: T1, human MAdCAM (human, UniProt Q13477 19-317, limits assumed); experiment: BLI (Octet), binder on anti-human Fc tips
T1 construct: also called huMAdCAM; human MAdCAM-1
T1 sequence (looked up): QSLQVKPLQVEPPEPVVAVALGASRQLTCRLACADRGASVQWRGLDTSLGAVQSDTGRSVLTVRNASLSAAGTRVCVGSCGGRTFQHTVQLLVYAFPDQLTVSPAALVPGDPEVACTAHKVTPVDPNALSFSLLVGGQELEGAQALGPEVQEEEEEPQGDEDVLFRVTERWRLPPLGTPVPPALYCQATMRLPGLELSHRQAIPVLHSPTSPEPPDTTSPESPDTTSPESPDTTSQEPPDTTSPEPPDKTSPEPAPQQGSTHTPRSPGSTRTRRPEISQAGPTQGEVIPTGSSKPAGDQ

cyno MAdCAM [2] = target: T2, cyno MAdCAM (cynomolgus); experiment: BLI (Octet), binder on anti-human Fc tips
T2 construct: also called cynomolgus MAdCAM

human MAdCAM [3] = target: T1, human MAdCAM; experiment: BLI (Octet)
mouse MAdCAM = target: T3, mouse MAdCAM (mouse, UniProt Q61826 22-365, limits assumed); experiment: BLI (Octet)
T3 construct: also called mouse MAdCAM-1; muMAdCAM
T3 sequence (looked up): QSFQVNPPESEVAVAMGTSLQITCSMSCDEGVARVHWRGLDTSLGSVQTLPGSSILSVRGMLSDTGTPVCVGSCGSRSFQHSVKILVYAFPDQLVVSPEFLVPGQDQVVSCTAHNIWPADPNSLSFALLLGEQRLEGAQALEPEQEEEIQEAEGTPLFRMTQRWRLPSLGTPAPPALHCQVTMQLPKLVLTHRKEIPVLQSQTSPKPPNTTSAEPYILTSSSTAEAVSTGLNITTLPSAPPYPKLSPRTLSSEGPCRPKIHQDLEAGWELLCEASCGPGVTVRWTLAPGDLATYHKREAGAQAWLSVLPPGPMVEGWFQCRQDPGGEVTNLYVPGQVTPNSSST

cyno MAdCAM [4] = target: T2, cyno MAdCAM; experiment: BLI (Octet)

B1: MIAB169 (antibody, V domains shown)
VH: EVQLLESGGGLVQPGGSLRLSCAASGFTFSDFWMHWVRQAPGKGLEWISYISGDSGYTNYADSVKGRFTISRDNSKNTLYLQMNSLRAEDTAVYYCARDRPYYYIMDVWGKGTTVTVSS
VL: DIQMTQSPSSLSASVGDRVTITCRASQSVSRSLAWYQQKPGKAPKLLIYAASSLQSGVPSRFSGSGSGTDFTLTISSLQPEDFATYYCQQYKSYPVTFGQGTKVEIK
notes: tested with human Fc; also called MIAB169-CHO; MIAB169-HEK
Kd (human MAdCAM [1]): 266 nM and 340 nM | fold lower affinity than parent PRNT1 (human MAdCAM [1]): 10 fold | koff (human MAdCAM [1]): 0.0738 s⁻¹ | kon (human MAdCAM [1]): 278000 M⁻¹ s⁻¹ | Kd (cyno MAdCAM [2]): 153 nM

B2: MIAB124 (antibody, V domains shown)
VH: EVQLLESGGGLVQPGGSLRLSCAASGFTFSTDAMSWVRQAPGKGLEWSAISGSGGSTYSADSVKGRFTISRDNSKNTLYLQMNSLRAEDTAVYYCARARVDWNSYNDLWGQGTLVTVSS
VL: EIVMTQSPATLSVSPGERATLSCRASQSVNNKLAWYQQKPGQAPRLLIYAASTRATGIPARFSGSGSGTEFTLTISSLQSEDFAVYYCQQYSTWPITFGQGTKVEIK
notes: tested with human Fc
Kd (cyno MAdCAM [2]): 11.5 nM

B3: MIAB125 (antibody, V domains shown)
VH: EVQLLESGGGLVQPGGSLRLSCAASGFTFSNYAISWVRQAPGKGLEWSDISGSGGTTYYADSVKGRFTISRDNSKNTLYLQMNSLRAEDTAVYYCARERVDWNSYFDLWGQGTLVTVSS
VL: EIVMTQSPATLSVSPGERATLSCRASQGISNSYLAWYQQKPGQAPRLLIYGASTRATGIPARFSGSGSGTEFTLTISSLQSEDFAVYYCQQYYTYPPTFGQGTKVEIK
notes: tested with human Fc
Kd (cyno MAdCAM [2]): 0.9 nM

B4: PMAB56 (bispecific antibody, human IgG1, kappa)
heavy: EVQLLESGGGLVQPGGSLRLSCAASGFTFSSYDMSWVRQAPGKGLEWVSGITISGGSTYYADSVKGRFTISRDNSKNTLYLQMNSLRAEDTAVYYCARGRGGSGWLDYWGQGTTVTVSSASTKGPSVFPLAPSSKSTSGGTAALGCLVKDYFPEPVTVSWNSGALTSGVHTFPAVLQSSGLYSLSSVVTVPSSSLGTQTYICNVNHKPSNTKVDKKVEPKSCDKTHTCPPCPAPEAAGAPSVFLFPPKPKDTLMISRTPEVTCVVVDVSHEDPEVKFNWYVDGVEVHNAKTKPREEQYNSTYRVVSVLTVLHQDWLNGKEYKCKVSNKALPAPIEKTISKAKGQPREPQVYTLPPSREEMTKNQVSLTCLVKGFYPSDIAVEWESNGQPENNYKTTPPVLDSDGSFFLYSKLTVDKSRWQQGNVFSCSVMHEALHNHYTQKSLSLSPGGGGGSGGGGSGGGGSEVQLLESGGGLVQPGGSLRLSCAASGFTFSSYWMHWVRQAPGKGLEWVSYISGSGGYTNYADSVKGRFTISRDNSKNTLYLQMNSLRAEDTAVYYCARDRPYYYDLDVWGKGTTVTVSSGGGGSGGGGSGGGGSGGGGSDIQMTQSPSSLSASVGDRVTITCRASQSISSSLAWYQQKPGKAPKLLIYAASSLQSGVPSRFSGSGSGTDFTLTISSLQPEDFATYYCQQYKSYPVTFGQGTKVEIK
light: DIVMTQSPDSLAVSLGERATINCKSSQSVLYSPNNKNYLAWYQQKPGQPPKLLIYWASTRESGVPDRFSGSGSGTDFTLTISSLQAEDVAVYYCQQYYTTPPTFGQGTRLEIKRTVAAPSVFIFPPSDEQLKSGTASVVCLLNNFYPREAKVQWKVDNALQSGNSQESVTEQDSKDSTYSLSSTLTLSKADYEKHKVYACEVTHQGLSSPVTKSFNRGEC
Kd (human MAdCAM [3]): 208 nM | koff (human MAdCAM [3]): 0.00491 s⁻¹ | kon (human MAdCAM [3]): 23600 M⁻¹ s⁻¹ | Kd (mouse MAdCAM): 161 nM | koff (mouse MAdCAM): 0.00147 s⁻¹ | kon (mouse MAdCAM): 9120 M⁻¹ s⁻¹ | Kd (cyno MAdCAM [4]): 96.5 nM | koff (cyno MAdCAM [4]): 0.0591 s⁻¹ | kon (cyno MAdCAM [4]): 612000 M⁻¹ s⁻¹

B5: PMAB18 (bispecific antibody, human IgG1, kappa)
heavy: QVQLVQSGAEVKKPGASVKVSCKASGYSFTTYYMHWVRQAPGQGLEWMGIIAPSGGSTSYAQKFQGRVTMTRDTSTSTVYMELSSLRSEDTAVYYCASGWVYWGQGTLVTVSSASTKGPSVFPLAPSSKSTSGGTAALGCLVKDYFPEPVTVSWNSGALTSGVHTFPAVLQSSGLYSLSSVVTVPSSSLGTQTYICNVNHKPSNTKVDKKVEPKSCDKTHTCPPCPAPEAAGAPSVFLFPPKPKDTLMISRTPEVTCVVVDVSHEDPEVKFNWYVDGVEVHNAKTKPREEQYNSTYRVVSVLTVLHQDWLNGKEYKCKVSNKALPAPIEKTISKAKGQPREPQVYTLPPSREEMTKNQVSLTCLVKGFYPSDIAVEWESNGQPENNYKTTPPVLDSDGSFFLYSKLTVDKSRWQQGNVFSCSVMHEALHNHYTQKSLSLSPGGGGGSGGGGSGGGGSEVQLLESGGGLVQPGGSLRLSCAASGFTFSSYWMHWVRQAPGKGLEWVSYISGSGGYTNYADSVKGRFTISRDNSKNTLYLQMNSLRAEDTAVYYCARDRPYYYDMDVWGKGTTVTVSSGGGGSGGGGSGGGGSGGGGSDIQMTQSPSSLSASVGDRVTITCRASQSISSSLAWYQQKPGKAPKLLIYAASSLQSGVPSRFSGSGSGTDFTLTISSLQPEDFATYYCQQYKSYPVTFGQGTKVEIK
light: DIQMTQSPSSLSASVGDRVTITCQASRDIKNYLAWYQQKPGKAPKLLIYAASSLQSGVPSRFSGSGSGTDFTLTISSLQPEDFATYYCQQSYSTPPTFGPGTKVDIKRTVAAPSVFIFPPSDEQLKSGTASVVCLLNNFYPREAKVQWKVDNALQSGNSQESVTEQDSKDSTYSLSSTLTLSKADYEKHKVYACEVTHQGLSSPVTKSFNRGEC
Kd (human MAdCAM [3]): 198 nM | koff (human MAdCAM [3]): 0.0511 s⁻¹ | kon (human MAdCAM [3]): 259000 M⁻¹ s⁻¹ | response (human MAdCAM [3]): 0.184 | Kd (mouse MAdCAM): 201 nM | koff (mouse MAdCAM): 0.0776 s⁻¹ | kon (mouse MAdCAM): 386000 M⁻¹ s⁻¹ | Kd (cyno MAdCAM [4]): 22.6 nM | koff (cyno MAdCAM [4]): 0.0102 s⁻¹ | kon (cyno MAdCAM [4]): 453000 M⁻¹ s⁻¹ | response (cyno MAdCAM [4]): 0.145

B6: PMAB55 (bispecific antibody, human IgG1, kappa)
heavy: EVQLVQSGAEVKKPGASVKVSCKASGYSFTSYYMHWVRQAPGQGLEWMGIINPSGGSTSYAQKFQGRVTMTRDTSTSTVYMELSSLRSEDTAVYYCASGWVYWGQGTLVTVSSASTKGPSVFPLAPSSKSTSGGTAALGCLVKDYFPEPVTVSWNSGALTSGVHTFPAVLQSSGLYSLSSVVTVPSSSLGTQTYICNVNHKPSNTKVDKKVEPKSCDKTHTCPPCPAPEAAGAPSVFLFPPKPKDTLMISRTPEVTCVVVDVSHEDPEVKFNWYVDGVEVHNAKTKPREEQYNSTYRVVSVLTVLHQDWLNGKEYKCKVSNKALPAPIEKTISKAKGQPREPQVYTLPPSREEMTKNQVSLTCLVKGFYPSDIAVEWESNGQPENNYKTTPPVLDSDGSFFLYSKLTVDKSRWQQGNVFSCSVMHEALHNHYTQKSLSLSPGGGGGSGGGGSGGGGSEVQLLESGGGLVQPGGSLRLSCAASGFTFSSYWMHWVRQAPGKGLEWVSYISGSGGYTNYADSVKGRFTISRDNSKNTLYLQMNSLRAEDTAVYYCARDRPYYYDLDVWGKGTTVTVSSGGGGSGGGGSGGGGSGGGGSDIQMTQSPSSLSASVGDRVTITCRASQSISSSLAWYQQKPGKAPKLLIYAASSLQSGVPSRFSGSGSGTDFTLTISSLQPEDFATYYCQQYKSYPVTFGQGTKVEIK
light: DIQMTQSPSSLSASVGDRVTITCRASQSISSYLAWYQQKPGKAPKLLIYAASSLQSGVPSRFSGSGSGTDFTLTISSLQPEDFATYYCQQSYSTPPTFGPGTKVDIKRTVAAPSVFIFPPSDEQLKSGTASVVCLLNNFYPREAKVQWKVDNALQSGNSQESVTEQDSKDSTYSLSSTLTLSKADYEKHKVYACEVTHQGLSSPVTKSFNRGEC
Kd (human MAdCAM [3]): 47.6 nM | koff (human MAdCAM [3]): 0.00163 s⁻¹ | kon (human MAdCAM [3]): 34300 M⁻¹ s⁻¹ | Kd (mouse MAdCAM): 59.5 nM | koff (mouse MAdCAM): 0.00131 s⁻¹ | kon (mouse MAdCAM): 22000 M⁻¹ s⁻¹ | Kd (cyno MAdCAM [4]): 44.3 nM | koff (cyno MAdCAM [4]): 0.00924 s⁻¹ | kon (cyno MAdCAM [4]): 209000 M⁻¹ s⁻¹

B7: PMAB54 (bispecific antibody, human IgG1, kappa)
heavy: EVQLVQSGAEVKKPGASVKVSCKASGYSFTSYYMHWVRQAPGQGLEWMGIINPSGGSTSYAQKFQGRVTMTRDTSTSTVYMELSSLRSEDTAVYYCASGWVYWGQGTLVTVSSASTKGPSVFPLAPSSKSTSGGTAALGCLVKDYFPEPVTVSWNSGALTSGVHTFPAVLQSSGLYSLSSVVTVPSSSLGTQTYICNVNHKPSNTKVDKKVEPKSCDKTHTCPPCPAPEAAGAPSVFLFPPKPKDTLMISRTPEVTCVVVDVSHEDPEVKFNWYVDGVEVHNAKTKPREEQYNSTYRVVSVLTVLHQDWLNGKEYKCKVSNKALPAPIEKTISKAKGQPREPQVYTLPPSREEMTKNQVSLTCLVKGFYPSDIAVEWESNGQPENNYKTTPPVLDSDGSFFLYSKLTVDKSRWQQGNVFSCSVMHEALHNHYTQKSLSLSPGGGGGSGGGGSGGGGSEVQLLESGGGLVQPGGSLRLSCAASGFTFSSYWMHWVRQAPGKGLEWVSYISGSGGYTNYADSVKGRFTISRDNSKNTLYLQMNSLRAEDTAVYYCARDRPYYYDIDVWGKGTTVTVSSGGGGSGGGGSGGGGSGGGGSDIQMTQSPSSLSASVGDRVTITCRASQSISSSLAWYQQKPGKAPKLLIYAASSLQSGVPSRFSGSGSGTDFTLTISSLQPEDFATYYCQQYKSYPVTFGQGTKVEIK
light: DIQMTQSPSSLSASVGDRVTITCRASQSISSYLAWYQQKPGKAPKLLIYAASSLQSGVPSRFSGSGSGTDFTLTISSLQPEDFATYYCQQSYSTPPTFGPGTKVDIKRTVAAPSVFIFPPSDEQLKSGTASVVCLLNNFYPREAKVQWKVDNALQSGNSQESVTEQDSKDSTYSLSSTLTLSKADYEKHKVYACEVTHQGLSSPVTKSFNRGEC
Kd (human MAdCAM [3]): 592 nM | koff (human MAdCAM [3]): 0.14 s⁻¹ | kon (human MAdCAM [3]): 236000 M⁻¹ s⁻¹ | Kd (mouse MAdCAM): 248 nM | koff (mouse MAdCAM): 0.00138 s⁻¹ | kon (mouse MAdCAM): 5570 M⁻¹ s⁻¹ | Kd (cyno MAdCAM [4]): 158 nM | koff (cyno MAdCAM [4]): 0.0114 s⁻¹ | kon (cyno MAdCAM [4]): 71900 M⁻¹ s⁻¹

B8: PMAB57 (bispecific antibody, human IgG1, kappa)
heavy: QVQLVQSGAEVKKPGASVKVSCKASGYSFTTYYMHWVRQAPGQGLEWMGIIAPSGGSTSYAQKFQGRVTMTRDTSTSTVYMELSSLRSEDTAVYYCASGWVYWGQGTLVTVSSASTKGPSVFPLAPSSKSTSGGTAALGCLVKDYFPEPVTVSWNSGALTSGVHTFPAVLQSSGLYSLSSVVTVPSSSLGTQTYICNVNHKPSNTKVDKKVEPKSCDKTHTCPPCPAPEAAGAPSVFLFPPKPKDTLMISRTPEVTCVVVDVSHEDPEVKFNWYVDGVEVHNAKTKPREEQYNSTYRVVSVLTVLHQDWLNGKEYKCKVSNKALPAPIEKTISKAKGQPREPQVYTLPPSREEMTKNQVSLTCLVKGFYPSDIAVEWESNGQPENNYKTTPPVLDSDGSFFLYSKLTVDKSRWQQGNVFSCSVMHEALHNHYTQKSLSLSPGGGGGSGGGGSGGGGSEVQLLESGGGLVQPGGSLRLSCAASGFTFSDFWMHWVRQAPGKGLEWISYISGDSGYTNYADSVKGRFTISRDNSKNTLYLQMNSLRAEDTAVYYCARDRPYYYYMDVWGKGTTVTVSSGGGGSGGGGSGGGGSGGGGSDIQMTQSPSSLSASVGDRVTITCRASQSVSRSLAWYQQKPGKAPKLLIYAASSLQSGVPSRFSGSGSGTDFTLTISSLQPEDFATYYCQQYKSYPVTFGQGTKVEIK
light: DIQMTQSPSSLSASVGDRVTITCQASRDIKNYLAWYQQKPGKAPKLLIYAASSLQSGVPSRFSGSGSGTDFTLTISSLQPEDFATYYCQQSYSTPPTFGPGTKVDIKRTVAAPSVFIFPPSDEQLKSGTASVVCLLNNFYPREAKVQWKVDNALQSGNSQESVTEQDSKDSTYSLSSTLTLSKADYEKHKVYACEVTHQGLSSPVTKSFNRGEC
Kd (human MAdCAM [3]): 122 nM | koff (human MAdCAM [3]): 0.0389 s⁻¹ | kon (human MAdCAM [3]): 320000 M⁻¹ s⁻¹ | response (human MAdCAM [3]): 0.18 | Kd (mouse MAdCAM): 205 nM | koff (mouse MAdCAM): 0.0558 s⁻¹ | kon (mouse MAdCAM): 272000 M⁻¹ s⁻¹ | Kd (cyno MAdCAM [4]): 49.9 nM | koff (cyno MAdCAM [4]): 0.0153 s⁻¹ | kon (cyno MAdCAM [4]): 306000 M⁻¹ s⁻¹ | response (cyno MAdCAM [4]): 0.169
